From patent US20180271995A1, “A PROTEIN CONJUGATE COMPRISING MULTIPLE PHYSIOLOGICALLY ACTIVE POLYPEPTIDES AND AN IMMUNOGLOBULIN FC REGION” (HANMI PHARM. CO., LTD., priority 2015, published 2018)
“And” between values parts separate entries of the source, which are not always exact repeats. Identical values can stand only once.

Key:
[1] = biological target: human GLP-1 receptor (human) (UniProt P43220); test: cell-based or functional assay
[2] = biological target: human insulin receptor β (human) (UniProt P06213); test: cell-based or functional assay
[3] = test system: mouse-derived 3T3-L1 cell line differentiated into adipocytes; test: Glucose uptake test in 3T3-L1 cells differentiated into adipocytes (GOPOD residual glucose); type: cell-based; settings: 3T3-L1 adipocytes, 24 hours; read-out: Glucose uptake (Insulin) EC50
Procedure: First, for analyzing the titer of insulin, a glucose uptake (or lipid synthesis ability) test was conducted using the mouse-derived 3T3-L1 cell line differentiated into adipocytes. […] The 3T3-L1 cell line was suspended in the medium for differentiation (DMEM containing 10% FBS), inoculated into a 48-well plate to a concentration of 5×10^4 cells/well, and cultured at 37° C. for 48 hours. […] The mixtures was added to each well in an amount of 250 μL/well after removing the existing medium.
For the glucose uptake test, the cells terminally differentiated into adipocytes were washed once with serum-free DMEM medium and serum-free DMEM medium was added into each well in an amount of 250 μL to induce serum depletion for 4 hours. […] Each of the thus-prepared samples was added to the cells in an amount of 250 μL, respectively, and cultured in a 5% CO2 incubator at 37° C. for 24 hours. For the measurement of the residual amount of glucose in the medium upon completion of cultivation, 200 μL of the medium was collected, diluted 5-fold with D-PBS, respectively, and subjected to GOPOD analysis (GOPOD Assay Kit, Megazyme, Cat. No. K-GLUC). The residual glucose concentration in the medium was calculated based on the absorbance of the standard glucose solution, and EC50 values for each of the samples with respect to glucose uptake ability was calculated and the result is shown in Table 9 below.

Substance	cAMP assay EC50 [1]	IR-β phosphorylation EC50 [2]	EC50 [3]
Immunoglobulin Fc	> 100 nM	> 1000 nM	
human insulin			9 nM and 11 nM
